In PMC7997955, “Bora phosphorylation substitutes in trans for T-loop phosphorylation in Aurora A to promote mitotic entry” (Nature Communications, 2021):
Numbering of substitutions follows the chain as printed. In names and notes the source's numbering stands.

T1: Full-length human AURKA^T288V (human, UniProt O14965 1-403, T288V, not phosphorylated: 0P by intact mass (Supplementary Fig. S3a))
T1 construct: non-native residues left at the N-terminus after TEV digestion; Aurora A kinase (AURKA), human, full length, T-loop mutant T288V; source: E. coli BL21 DE3 pLysS RIL, purified (glutathione sepharose, TEV cleavage, HiTrap SP, Superdex 200); not shown: 6xHis, N-terminal, cleaved; GST, N-terminal, cleaved
T1 sequence: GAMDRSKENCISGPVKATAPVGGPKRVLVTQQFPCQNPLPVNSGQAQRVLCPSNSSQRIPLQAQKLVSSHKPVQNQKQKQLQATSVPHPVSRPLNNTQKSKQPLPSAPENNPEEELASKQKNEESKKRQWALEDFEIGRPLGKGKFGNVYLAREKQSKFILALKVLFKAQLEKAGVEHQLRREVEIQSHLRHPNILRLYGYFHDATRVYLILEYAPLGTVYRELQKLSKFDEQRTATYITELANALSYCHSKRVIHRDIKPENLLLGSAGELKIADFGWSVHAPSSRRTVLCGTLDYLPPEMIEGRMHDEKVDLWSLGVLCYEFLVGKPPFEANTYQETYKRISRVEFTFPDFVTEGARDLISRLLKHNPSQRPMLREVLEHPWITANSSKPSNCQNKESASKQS

T2: fluorescein-labeled Tpx2^1–43 polypeptide (UniProt Q9ULW0 1-43, fluorescein (FITC) label, position not stated)
T2 construct: Tpx2 (Targeting Protein for Xenopus kinesin-like protein 2), first 43 residues; also called FITC-Tpx2^1–43; source: synthetic peptide (Proteogenix)
T2 peptide (looked up): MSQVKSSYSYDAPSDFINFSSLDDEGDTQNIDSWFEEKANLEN

T3: Full-length human AURKA^T288V (human, UniProt O14965 1-403, T288V)
T3 construct: non-native residues left at the N-terminus after TEV digestion of the 6xHis-GST fusion; Aurora A kinase (AURKA), human, full length, T288V; Lacks T-loop phosphorylation; MW 45935.52 in the SPR methods; also called AURKA T-loop mutant (T288V); source: E. coli BL21 DE3 pLyS RIL, purified (glutathione sepharose, TEV cleavage, HiTrap SP, Superdex 200); not shown: 6xHis, N-terminal, cleaved; GST, …
T3 sequence: T1 sequence

T4: Full-length human AURKA^WT (Aurora A kinase) (human, UniProt O14965 1-403, phosphothreonine at T288 (T-loop; 'WT phosphorylated'))
T4 construct: non-native residues left at the N-terminus after TEV digestion of the 6xHis-GST fusion; Aurora A kinase (AURKA), human, full length; also called AURA^WT; WT phosphorylated; source: E. coli BL21 DE3 pLyS RIL, purified (glutathione sepharose, TEV cleavage, HiTrap SP, Superdex 200); not shown: 6xHis, N-terminal, cleaved; GST, N-terminal, cleaved
T4 sequence: T1 sequence with V290T

B1: pBora^(18–120 [S27A T52A]) (domain or fragment)
chain: not shown
modifications: phosphorylated; with ERK 2P and 3P by intact mass, 2 phosphorylations expected (S41, S112) (Supplementary Fig. S6e)
notes: non-native residues left at the N-terminus after TEV digestion; Bora, human, residues 18-120 with S27A and T52A; source: E. coli BL21 DE3 pLysS RIL, purified, then phosphorylated in vitro; not shown: 6xHis, N-terminal, cleaved
B2: AURKA^([T288V R255A]) (enzyme, human)
chain: T1 sequence with R257A
notes: non-native residues left at the N-terminus after TEV digestion of the 6xHis-GST fusion; Aurora A kinase (AURKA), human, full length, T288V R255A; source: E. coli BL21 DE3 pLyS RIL, purified (glutathione sepharose, TEV cleavage, HiTrap SP, Superdex 200); not shown: 6xHis, N-terminal, cleaved; GST, N-terminal, cleaved
B3: biotinylated AVI-tagged pBora^1–224 (phosphorylated by CyclinA2-Cdk2) (domain or fragment)
chain: not shown
modifications: biotin (on the AVI tag, by BirA); phosphorylated by CyclinA2-Cdk2 (average of eight phosphorylations)
notes: As m9, phosphorylated; MW 27440 calculated from an average of eight phosphorylations; not shown: AVI, N-terminal, kept; 6xHis, N-terminal, cleaved
B4: biotinylated AVI-tagged Bora^1–224 (domain or fragment)
chain: not shown
modifications: biotin (on the AVI tag, by BirA)
notes: source: E. coli BL21 DE3 pLyS RIL, purified, biotinylated in vitro with 6xHis-BirA and re-purified (Superdex 200); not shown: AVI, N-terminal, kept; 6xHis, N-terminal, cleaved

What was measured:
Conditions in all cases: both partners purified
[1] = molecular target: T1, Full-length human AURKA^T288V; assay: fluorescence polarisation; competitive displacement: FITC-Tpx2^1–43 (5 nM) and AURKA (35 nM) kept constant, unlabeled competitor varied; 25 mM HEPES pH 7.5, 50 mM NaCl, 10 mM MgCl2, 0.1 mg/mL BSA, 0.01% Brij, 3 mM ADP, 2 mM DTT
[2] = molecular target: T2, fluorescein-labeled Tpx2^1–43 …; assay: fluorescence polarisation; direct binding: 5 nM FITC-Tpx2^1–43 with increasing AURKA; 25 mM HEPES pH 7.5, 50 mM NaCl, 10 mM MgCl2, 0.1 mg/mL BSA, 0.01% Brij, 3 mM ADP, 2 mM DTT
[3] = molecular target: T3, Full-length human AURKA^T288V; assay: SPR; biotinylated AVI-Bora^1–224 or AVI-pBora^1–224 immobilised on a streptavidin chip (Biacore S200), AURKA flowed over; 25 °C; 25 mM HEPES pH 7.5, 150 mM NaCl, 20 mM MgCl2, 1 mM TCEP, 0.01% Brij 35; flow 10 µL/min; mean of n = 2; the paper says the affinities appear under-estimated
[4] = molecular target: T4, Full-length human AURKA^WT (Aurora A …); assay: as above

Binder	IC50 [1] [µM]	fold reduced binding against the other AURKA^T288V mutants [2] [fold]	Kd [3] [µM]	Kd [4] [µM]
B1	0.68	–	–	–
B2	–	3	–	–
B3	–	–	6	~18
B4	–	–	11	~52
